# Data taken from US20260201008A1, “SECRETIN-DERIVED GLP1R SELECTIVE AGONISTS” (GUBRA A/S, priority 2023, published 2026).
# Square brackets hold non-standard residues; d marks the D form. Ends that are not written are not given here. Aib = CC(C)(N)C(=O)O
# Biological target: human secretin receptor (hSCTR) (human, UniProt P47872 23-440)
# Test: cell-based or functional assay
# Sequence of human secretin receptor (hSCTR) (P47872 23-440): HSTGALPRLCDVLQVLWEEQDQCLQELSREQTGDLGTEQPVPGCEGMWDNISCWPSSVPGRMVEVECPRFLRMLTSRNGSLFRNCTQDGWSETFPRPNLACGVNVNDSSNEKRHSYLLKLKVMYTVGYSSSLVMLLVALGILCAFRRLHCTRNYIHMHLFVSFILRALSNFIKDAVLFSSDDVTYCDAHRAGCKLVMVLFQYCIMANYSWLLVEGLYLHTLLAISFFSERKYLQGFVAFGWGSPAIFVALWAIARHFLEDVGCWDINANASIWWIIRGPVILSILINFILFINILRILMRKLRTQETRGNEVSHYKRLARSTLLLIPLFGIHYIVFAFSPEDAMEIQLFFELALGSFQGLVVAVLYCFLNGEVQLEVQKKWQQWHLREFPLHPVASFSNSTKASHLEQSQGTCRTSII
binder,measurement,value
H[Aib]EGTFTSDWSRLLEGAALQRFIQWLV-NH2 (N-terminus assumed; SMILES CC[C@H](C)[C@H](NC(=O)[C@H](Cc1ccccc1)NC(=O)[C@H](CCCNC(=N)N)NC(=O)[C@H](CCC(N)=O)NC(=O)[C@H](CC(C)C)NC(=O)[C@H](C)NC(=O)[C@H](C)NC(=O)CNC(=O)[C@H](CCC(=O)O)NC(=O)[C@H](CC(C)C)NC(=O)[C@H](CC(C)C)NC(=O)[C@H](CCCNC(=N)N)NC(=O)[C@H](CO)NC(=O)[C@H](Cc1c[nH]c2ccccc12)NC(=O)[C@H](CC(=O)O)NC(=O)[C@H](CO)NC(=O)[C@@H](NC(=O)[C@H](Cc1ccccc1)NC(=O)[C@@H](NC(=O)CNC(=O)[C@H](CCC(=O)O)NC(=O)C(C)(C)NC(=O)[C@@H](N)Cc1c[nH]cn1)[C@@H](C)O)[C@@H](C)O)C(=O)N[C@@H](CCC(N)=O)C(=O)N[C@@H](Cc1c[nH]c2ccccc12)C(=O)N[C@@H](CC(C)C)C(=O)N[C@H](C(N)=O)C(C)C) [SEQ ID NO: 219],pEC50 hSCTR,8.2 -log M
H[Aib]EGTFTSDYSRLLEGAALQRFIQWLV-NH2 (N-terminus assumed; SMILES CC[C@H](C)[C@H](NC(=O)[C@H](Cc1ccccc1)NC(=O)[C@H](CCCNC(=N)N)NC(=O)[C@H](CCC(N)=O)NC(=O)[C@H](CC(C)C)NC(=O)[C@H](C)NC(=O)[C@H](C)NC(=O)CNC(=O)[C@H](CCC(=O)O)NC(=O)[C@H](CC(C)C)NC(=O)[C@H](CC(C)C)NC(=O)[C@H](CCCNC(=N)N)NC(=O)[C@H](CO)NC(=O)[C@H](Cc1ccc(O)cc1)NC(=O)[C@H](CC(=O)O)NC(=O)[C@H](CO)NC(=O)[C@@H](NC(=O)[C@H](Cc1ccccc1)NC(=O)[C@@H](NC(=O)CNC(=O)[C@H](CCC(=O)O)NC(=O)C(C)(C)NC(=O)[C@@H](N)Cc1c[nH]cn1)[C@@H](C)O)[C@@H](C)O)C(=O)N[C@@H](CCC(N)=O)C(=O)N[C@@H](Cc1c[nH]c2ccccc12)C(=O)N[C@@H](CC(C)C)C(=O)N[C@H](C(N)=O)C(C)C) [SEQ ID NO: 217],pEC50 hSCTR,8.8 -log M
